Data as given in patent publication KR20220054080A (dated 2022).
Substitutions are numbered along the chain they refer to. “And” between values parts separate entries of the source, which are not always exact repeats. Equal entries are not always repeated. Where two headings read alike, the source gives them in different places.

B1: SA3838 (antibody, V domains shown)
VH: QVQLVESGAEVKKPGASVRVSCKISGYIFTELSIHWVRQAPGKGLEWMGGFDPEEGKTIYAQKFQGRVTMTEDTSTDTAYMELSSLRSEDTAVYYCAKIGHLGDFWYWGQGTLITVSS
VL: QSALTQPASVSGSPGQSITISCTGTTSDIGSYDYVSWYQQHPGKAPKLIIYGVTRRPSGVSNRFSGSKSGNTASLTISRLLTEDEAEYYCATYTSSATYVFGTGTKVTVL
B2: SA4040 (antibody, V domains shown)
VH: EVQLVQSGAEVKKPGASVKVSCKASGYTFTGYYMHWARQAPGQGLEWMGWINPNSGGTNYAQKFQGRVTMTRDTSITTAYMELSRLTSDDTAVYYCARDQAFSMVRGVTDYWGQGTLVTVSS
VL: QSALTQPPSASGSPGQSVIISCTGSSSDVGGYNYVAWYQQYPGAAPKLIISEVTKRPSGVPDRFSGSKSGNTASLTISGLQAEDEANYYCSSYAGDNTWIFGGGTKLTVL
B3: SA4079 (antibody, V domains shown)
VH: QMQLVESGGGVVQPGGSLRLSCAASGFTFDDHTMHWVRQAPGKGLEWVSLISWDGGSTYYADSVKGRFTISRDNSKNSLYLQMNSLRAEDTAVYYCTRDASRRPGDGGYDFDVWGQGTQVTVSS
VL: QAVVTQEPSLTVSPGGTATLTCGSSTGTVTRGHWPYWFQQKPGQAPRTLIYDTDTKHSWTPARFSGSLLGGKAALTLSGAQPEDEADYYCLLSYSDSRVFGTGTKVTVL
B4: SA4055 (antibody, V domains shown)
VH: EVQLVQSGGGLVQPGGSLRLSCAASVITVSSNYMSWVRQAPGKGLEWVSVIYPGGSTYYADSVKGRFTISRDKSKNTLYLQMNSLRAEDTAVYYCARDLDIVGGMDVWGQGTTVTVSS
VL: QSALTQPASVSGSPGQSITISCTGTSSDVGDYNLVSWYQQHPGKAPKVMIYDVSHRPSGVSNRFSGSKSGNTASLTISGLQAEDEADYYCSSYTSSTTVVFGGGTKLTVL
B5: SA4056 (antibody, V domains shown)
VH: B4 VH with E1Q, V5Q, Q6E
VL: DIQMTQSPSTLSASVGDRVTITCRASQSISRWLAWYQQKPGQAPKLLIYAASTLQSGVPSRFSGSGSGTEFTLTISSLQPDDFATYYCQQYDSYPRTFGQGTKVDIK
B6: SA3830 (antibody, V domains shown)
VH: QVQLVESGGGLIQPGRSLSLSCAASGFNFDEYSMHWVRQRPGKGLEWVSGIKYNSNTILYADSVKGRFTVSRDNSKNSLYLQMNSLRAEDTAVYYCARDAMRGGDFDHWGQGTLITVSS
VL: DIQMTQSPSYLSASAGDRVTITCRASQSISDWLAWYQHKPGKAPKLLIYKASRLENGVPSRFRGSGSATDFTLTISSLQAEDVAVYYCQQYYSTTWTFGQGTKVDIK
B7: SA3856 (antibody, V domains shown)
VH: QMQLVESGGGLIQPGGSLRLSCAASGFTVTSAYMSWVRQAPGKGLEWVSIIYGGGSTYYADSVKGRFTISRDNSKNTLYLQMNSLRAEDTAVYYCTGPYPGRYDYWGRGTLVTVSS
VL: DIQMTQSPSSLSASVGDRVIITCRASQDIRTSLAWFQQRLGEAPRSLIYDASSLQNGVPSKFRGSGSGTDFTLTISSLQPEDFATYYCQQYKTVPLTFGGGTKVEIK
B8: SA3779 (antibody, V domains shown)
VH: QVQLVESGGGVVQPGRSLRLSCAASGFTFSSYAMHWVRQAPGKGLEWVAVISYDGSNKYYADSAKGRFTISRDNSKNTLYLQMNSLRAEDTAVYYCARRGHYYDSSGYLYWGHGTLITVSS
VL: DIQMTQSPSSLSASVGDRVTITCRASQRIATYLHWYQQKPGRAPKLLIYAASSLQTGVPSRFSGSGSGTDFTLTINSLQPEDFATYYCQQSYAIPYTFGQGTKLEIK
B9: SA3827 (antibody, V domains shown)
VH: B8 VH with G10T, V11L, A64V, Y108F, H113Q, I117V
VL: DIQMTQSPSSLSASVGDRVTITCRASQSISTYLSWYQQKPGKAPKLLIYAASNLQSGVPSRFSASGSGTDFTLTISSLQPEDFATYYCQQSYNTPRTFGQGTKVEIK
B10: SA3902 (antibody, V domains shown)
VH: QVQLVQSGAEVRQPGASVKVSCKTSGYAFSYYHIHWVRQAPGQGLEWMGLINPGSGGTNYAQKFQGRVTLTRDTSTSTVYMDLTGLRSEDTAVYYCAGSEQPHYYANGAYRVWGQGTLVTVSS
VL: DIQMTQSPSTLSASVGDRVTITCRASQSISSYLNWYQQKPGKAPKLLIYEVSTLESGVPSRFSGSRSGTEFTLTISSLQPDDFATYYCQQYDTFGGGTKVEIK

What was measured:
[1] = biological target: T1, SARS-CoV-2 spike protein on live SARS-CoV-2 virus (SARS-CoV-2, UniProt P0DTC2 14-1273); assay: cell-based or functional assay
SARS-CoV-2 스파이크 S1-mFc [2] = biological target: T2, SARS-CoV-2 스파이크 S1-mFc (SARS-CoV-2, UniProt P0DTC2 16-685); assay: competition ELISA: S1-mFc on coated ACE2-His
T2 construct: range 16-685

SARS-CoV-2 RBD-mFc [3] = biological target: T3, SARS-CoV-2 RBD-mFc (SARS-CoV-2, UniProt P0DTC2 319-541); assay: flow cytometry competition: RBD-mFc on HEK293E/ACE2 cells
T3 construct: range 319-541

[4] = biological target: SARS-CoV RBD-His (#40150-V08B2, Sino Biological) (SARS-CoV, UniProt P59594 306-527); assay: ELISA, coated His-tagged antigen
SARS-CoV-2 RBD-hFc [5] = biological target: T4, SARS-CoV-2 RBD-hFc (SARS-CoV-2, UniProt P0DTC2 319-541); assay: cell-based or functional assay
[6] = biological target: T1, SARS-CoV-2 spike protein on live …; assay: cell-based or functional assay; remark: listed apart in the source
SARS-CoV-2 RBD-mFc [7] = biological target: T3, SARS-CoV-2 RBD-mFc; assay: competition ELISA: RBD-mFc on coated ACE2-His
SARS-CoV-2 스파이크 S1-mFc [8] = biological target: T2, SARS-CoV-2 스파이크 S1-mFc; assay: competition ELISA: S1-mFc on coated ACE2-His; remark: listed apart in the source
SARS-CoV-2 RBD-mFc [9] = biological target: T3, SARS-CoV-2 RBD-mFc; assay: competition ELISA: RBD-mFc on coated ACE2-His; remark: listed apart in the source
[10] = biological target: T5, SARS-CoV 스파이크 [change] (#40150-V08B1, Sino Biological) (SARS-CoV, UniProt P59594 14-667); assay: ELISA, coated S1-His
SARS-CoV-2 RBD-hFc [11] = biological target: T4, SARS-CoV-2 RBD-hFc; assay: cell-based or functional assay; remark: listed apart in the source
SARS-CoV-2 RBD-mFc [12] = biological target: T3, SARS-CoV-2 RBD-mFc; assay: flow cytometry competition: RBD-mFc on HEK293E/ACE2 cells; remark: listed apart in the source
SARS-CoV-2 RBD-mFc [13] = biological target: T3, SARS-CoV-2 RBD-mFc; assay: Octet QKe BLI, 1:1 global fit
[14] = biological target: T5, SARS-CoV 스파이크 [change] (#40150-V08B1, …); assay: ELISA, coated S1-His, as Example 5.2
SARS-CoV-2 RBD-mFc [15] = biological target: T3, SARS-CoV-2 RBD-mFc; assay: Octet QKe BLI, 1:1 global fit; remark: listed apart in the source

| Binder | IC50, live SARS-CoV-2 미세중화분석, Vero 세포 [1] | IC50 (SARS-CoV-2 스파이크 S1-mFc [2]) | IC50 (SARS-CoV-2 RBD-mFc [3]) | binding result [4] | IC50, 세포내 유입(internalization) 억제, HEK293E/ACE2-GFP (SARS-CoV-2 RBD-hFc [5]) | IC50, live SARS-CoV-2 미세중화분석, Vero 세포, 72시간 [6] | IC50 (SARS-CoV-2 RBD-mFc [7]) | IC50 (SARS-CoV-2 스파이크 S1-mFc [8]) | IC50 (SARS-CoV-2 RBD-mFc [9]) | binding result [10] | IC50, 세포내 유입(internalization) 억제, HEK293E/ACE2-GFP (SARS-CoV-2 RBD-hFc [11]) | IC50 (SARS-CoV-2 RBD-mFc [12]) | Kd (SARS-CoV-2 RBD-mFc [13]) | koff (SARS-CoV-2 RBD-mFc [13]) | kon (SARS-CoV-2 RBD-mFc [13]) | binding result [14] | Kd (SARS-CoV-2 RBD-mFc [15]) | koff (SARS-CoV-2 RBD-mFc [15]) | kon (SARS-CoV-2 RBD-mFc [15]) |
| --- | --- | --- | --- | --- | --- | --- | --- | --- | --- | --- | --- | --- | --- | --- | --- | --- | --- | --- | --- |
| B1 | 9.4 nM | 2.25 nM | 2.99 nM | no binding | 42.8 nM | 13.5 nM | 1.62 nM | 1.2 nM | 2.2 nM | no binding (tested: 50 nM) | 36.1 nM | 3.38 nM |  |  |  |  |  |  |  |
| B2 | 8.14 nM |  |  | no binding |  |  |  | 3.1 nM | 25.3 nM | no binding (tested: 50 nM) | 30.8 nM | 1.59 nM | 0.384 nM | 0.000181 s⁻¹ | 471000 M⁻¹ s⁻¹ |  |  |  |  |
| B3 |  | 2.71 nM | 2.35 nM | no binding | 40 nM | 2.74 nM | 3.62 nM |  |  |  |  |  |  |  |  | no binding | 0.154 nM | 5.73e-05 s⁻¹ | 373000 M⁻¹ s⁻¹ |
| B4 | 7 nM |  |  | no binding |  | 3.22 nM and 4.51 nM |  | 1.88 nM | 0.144 nM | no binding (tested: 50 nM) | 37.1 nM | 2.9 nM | 0.061 nM | 2.36e-05 s⁻¹ | 387000 M⁻¹ s⁻¹ |  |  |  |  |
| B5 | 11.3 nM |  |  | no binding |  |  |  | 1.4 nM | 1.86 nM | no binding (tested: 50 nM) | 28.1 nM | 2.19 nM | 0.0907 nM | 4.32e-05 s⁻¹ | 477000 M⁻¹ s⁻¹ |  |  |  |  |
| B6 | 231 nM |  |  | no binding |  |  |  | 1.86 nM | 10.2 nM | no binding (tested: 50 nM) | 13.5 nM | 2.57 nM | 0.782 nM | 0.000702 s⁻¹ | 897000 M⁻¹ s⁻¹ |  |  |  |  |
| B7 | 137 nM |  |  | no binding |  |  |  | 2.11 nM | 25.1 nM | no binding (tested: 50 nM) | 11.9 nM | 2.67 nM | 0.0888 nM | 4.3e-05 s⁻¹ | 484000 M⁻¹ s⁻¹ |  |  |  |  |
| B8 | 56.8 nM | 3.59 nM | 2.65 nM | no binding | 27.3 nM | 45.6 nM | 7.96 nM | 4.03 nM | 11.2 nM | no binding (tested: 50 nM) | 18.9 nM | 2.84 nM | 1.05 nM | 0.000223 s⁻¹ | 213000 M⁻¹ s⁻¹ |  |  |  |  |
| B9 | 8.92 nM | 0.9 nM | 2.71 nM | no binding | 18.3 nM | 7.94 nM | 0.321 nM | 0.61 nM | 0.914 nM | no binding (tested: 50 nM) | 12.9 nM | 2.74 nM | 0.452 nM | 0.000173 s⁻¹ | 383000 M⁻¹ s⁻¹ |  |  |  |  |
| B10 | 37.3 nM |  |  | no binding |  |  |  | 3.85 nM | 12.4 nM | no binding (tested: 50 nM) | 14.9 nM | 1.75 nM | 0.328 nM | 8.12e-05 s⁻¹ | 247000 M⁻¹ s⁻¹ |  |  |  |  |
